Among the data in article PMC8476121 (2021) are Kd values, retold here.

The term Kd denotes the equilibrium constant for the complex coming apart. Read a low Kd as a tighter complex.

For this assay, the target named is NB88. The assay can be described thus: SPR. Background: SPR reads the build-up and loss of mass on a sensor chip optically.

B1: CaSR ECD (extracellular domain of human calcium-sensing receptor) (domain or fragment)
chain: YGPDQRAQKKGDIILGGLFPIHFGVAAKDQDLKSRPESVECIRYNFRGFRWLQAMIFAIEEINSSPALLPNLTLGYRIFDTCNTVSKALEATLSFVAQNKIDSLNLDEFCNCSEHIPSTIAVVGATGSGVSTAVANLLGLFYIPQVSYASSSRLLSNKNQFKSFLRTIPNDEHQATAMADIIEYFRWNWVGTIAADDDYGRPGIEKFREEAEERDICIDFSELISQYSDEEEIQHVVEVIQNSTAKVIVVFSSGPDLEPLIKEIVRRNITGKIWLASEAWASSSLIAMPQYFHVVGGTIGFALKAGQIPGFREFLKKVHPRKSVHNGFAKEFWEETFNCHLQEGAKGPLPVDTFLRGHEESGDRFSNSSTAFRPLCTGDENISSVETPYIDYTHLRISYNVYLAVYSIAHALQDIYTCLPGRGLFTNGSCADIKKVEAWQVLKHLRHLNFTNNMGEQVTFDECGDLVGNYSIINWHLSPEDGSIVFKEVGYYNVYAKKGERLFINEEKILWSGFSREVPFSNCSRDCLAGTRKGIIEGEPTCCFECVECPDGEYSDETDASACNKCPDDFWSNENHTSCIAKEIEFLS
For the molecule B1, the Kd was 3.9 nM.
